Here are results for 8 molecules from patent publication US20100260765A1 (AstraZeneca / MedImmune, published 2010).

Substitutions are numbered along the chain they refer to.

B1: anti-KDR monoclonal antibody 24B3 (antibody, V domains shown)
VH: EVQLVESGGGLVKPGGSLRLSCAASGFTFSTYSMNWVRQAPGKGLEWVSFISGRSSYIYYADSVKGRFTISRDNAKNSLYLQMNSLRAEDTAVYYCSKDDWFEELWGQGTLVTVSS
VL: DIQMTQSPSSLSASVGDRVTITCRASQGIRSDLGWYQQKPGKAPKRLIYATSSLQSGVPSRFSGSGSGTEFTLTISSLQPEDFATYYCLQHNRYPWTFGQGTKVEIK
notes: Fully human mAb from XenoMouse (IgG2 or IgG4 strain); hybridoma supernatant
B2: anti-KDR monoclonal antibody 27A3 (antibody, V domains shown)
VH: QLQLQESGPGLVKPSETLSLTCTVSGGSISSRSDYWGWIRQPPGKGLEWIGTIYYSGDTYYNPSLKSRVTISVDTSKNQFSLKLSSVTAADTAVYYCARQQLVLYYFDYWGQGTLVTVSS
VL: EIVLTQSPGTLSLSPGERATLSCRASQSVSSSYLAWYQQKPGQAPRLLIYATSNRATGIPDRFSGSGSGTDFTLTISRLEPEDFAVYYCQQHGSSPPLTFGGGTKVEIK
notes: as for B1
B3: anti-KDR monoclonal antibody 30F6 (antibody, V domains shown)
VH: QVQLVESGGGVVQPGRSLRLSCAASGFTFSTYGMHWVRQAPGKGLEWVAVIWYDGSNKYYADSVKGRFTISRDNSKNTLYLQMNSLRAEDTAVYYCACSYWNDDYYYGMDVWGQGTTVTVSS
VL: DIQMTQSPSSLSASVGDRVIITCRASQNISSYLIWYQQKPGKAPNLLIHTTSSLQRGVPSRFSGSGSGTDFTLTISSLQPEDFATYYCQQSYSAPLTFGGGTKVEIK
notes: as for B1
B4: anti-KDR monoclonal antibody 21H9 (antibody, V domains shown)
VH: QVPLVESGGGVVQPGRSLRLSCAASGFTFSSYGMHWVRQAPGKGLEWVAVIWYDGSNKYYADSVQGRFTISRDNSKNTLYLQMNSLRAEDTAVYYCARGVTMVRGLIIARYYYGLDVWGQGTTVTVSS
VL: DIVMTQTPLSSPVTFGQPASISCRSSQSLVHSDGNTYLSWLQQRPGQPPRLLIYKISNRFFGVPDRFSGSGAGTDFTLKISRVEAEDVGLYYCMQSTQFPLTFGGGTKVEIK
notes: as for B1
B5: anti-KDR monoclonal antibody 30H10 (antibody, V domains shown)
VH: EVQLLESGGGLVQPGGSLRLSCAASGFTFSNYAMSWVRQAPGKGLEWVSAISGSGGITYYADSVKGRFTISRDNSKNTLFLQMNSLRAEDTAVYYCAKASGDNWGQGTLVSVSS
VL: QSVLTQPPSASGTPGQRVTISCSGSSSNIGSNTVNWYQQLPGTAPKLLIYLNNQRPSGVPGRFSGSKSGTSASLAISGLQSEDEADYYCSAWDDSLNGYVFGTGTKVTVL
notes: as for B1
B6: anti-KDR monoclonal antibody 32C11 (antibody, V domains shown)
VH: B5 VH with G10T, S54R, G55A, I57S, N103D, S111T
VL: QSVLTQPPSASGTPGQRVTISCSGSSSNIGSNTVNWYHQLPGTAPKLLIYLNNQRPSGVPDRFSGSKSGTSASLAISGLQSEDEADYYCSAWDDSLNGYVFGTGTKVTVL
notes: as for B1
B7: anti-KDR monoclonal antibody 21H6 (antibody, V domains shown)
VH: QVQLVESGGGLVKPGGSLRLSCAASGFTFSDYYMSWIRQAPGKGLEWVSYISNSGITIYYADSVKGRFTISRDNAKNSLYLQMNSLRAGDTAVYYCAREEWYSSRWYRNFDYWGQGTLVTVSS
VL: DIQMTQFSSSLSASVGDRVTITCRASQSISRYLNWYQQKPGKAPKLLIYAASSLQSGVPSRFNGSGSGTDFTLTISSLQPEDFATYYCQQSYSAPLTFGGGTKVEIK
notes: Fully human mAb from XenoMouse; hybridoma supernatant
B8: anti-KDR monoclonal antibody 21A1 (antibody, V domains shown)
VH: B7 VH
VL: B7 VL
notes: as for B1

T2 sequence (P35918 20-762): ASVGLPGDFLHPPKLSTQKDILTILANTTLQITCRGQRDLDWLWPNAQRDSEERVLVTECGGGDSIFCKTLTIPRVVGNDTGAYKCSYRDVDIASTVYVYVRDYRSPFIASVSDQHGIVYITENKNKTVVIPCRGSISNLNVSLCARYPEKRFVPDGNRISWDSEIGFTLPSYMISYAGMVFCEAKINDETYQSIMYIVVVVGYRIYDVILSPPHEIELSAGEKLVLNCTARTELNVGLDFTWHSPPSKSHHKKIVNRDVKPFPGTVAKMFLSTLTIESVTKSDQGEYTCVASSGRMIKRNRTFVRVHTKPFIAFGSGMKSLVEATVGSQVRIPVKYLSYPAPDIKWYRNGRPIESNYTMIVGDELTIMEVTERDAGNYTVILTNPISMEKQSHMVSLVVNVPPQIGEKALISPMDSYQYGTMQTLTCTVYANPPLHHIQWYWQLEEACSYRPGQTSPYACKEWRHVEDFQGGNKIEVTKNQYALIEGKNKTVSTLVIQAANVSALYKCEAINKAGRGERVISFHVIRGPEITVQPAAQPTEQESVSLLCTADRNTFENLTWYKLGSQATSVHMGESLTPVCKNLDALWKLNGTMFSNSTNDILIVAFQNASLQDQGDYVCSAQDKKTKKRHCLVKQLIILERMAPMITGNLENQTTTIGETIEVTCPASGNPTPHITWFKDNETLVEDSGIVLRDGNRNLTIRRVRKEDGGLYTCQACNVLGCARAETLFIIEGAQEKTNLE
T4 sequence (P35968 328-764): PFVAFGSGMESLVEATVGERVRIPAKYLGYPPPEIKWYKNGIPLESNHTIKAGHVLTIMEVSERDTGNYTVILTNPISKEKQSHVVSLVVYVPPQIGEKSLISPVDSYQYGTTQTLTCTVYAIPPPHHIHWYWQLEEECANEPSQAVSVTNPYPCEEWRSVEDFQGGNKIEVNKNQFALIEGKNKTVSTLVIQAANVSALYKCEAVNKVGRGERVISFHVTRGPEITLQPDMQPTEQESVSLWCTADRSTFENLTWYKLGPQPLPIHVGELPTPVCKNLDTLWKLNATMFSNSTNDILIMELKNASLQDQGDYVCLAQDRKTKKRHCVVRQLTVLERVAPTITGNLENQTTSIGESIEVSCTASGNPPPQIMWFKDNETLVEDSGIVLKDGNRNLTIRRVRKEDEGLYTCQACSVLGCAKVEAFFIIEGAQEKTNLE

For the first assay, the target named is T1, human KDR (VEGFR2) on cells (human, UniProt P35968 20-1356). Description: cell-based or functional assay.
T1 sequence (P35968 20-1356): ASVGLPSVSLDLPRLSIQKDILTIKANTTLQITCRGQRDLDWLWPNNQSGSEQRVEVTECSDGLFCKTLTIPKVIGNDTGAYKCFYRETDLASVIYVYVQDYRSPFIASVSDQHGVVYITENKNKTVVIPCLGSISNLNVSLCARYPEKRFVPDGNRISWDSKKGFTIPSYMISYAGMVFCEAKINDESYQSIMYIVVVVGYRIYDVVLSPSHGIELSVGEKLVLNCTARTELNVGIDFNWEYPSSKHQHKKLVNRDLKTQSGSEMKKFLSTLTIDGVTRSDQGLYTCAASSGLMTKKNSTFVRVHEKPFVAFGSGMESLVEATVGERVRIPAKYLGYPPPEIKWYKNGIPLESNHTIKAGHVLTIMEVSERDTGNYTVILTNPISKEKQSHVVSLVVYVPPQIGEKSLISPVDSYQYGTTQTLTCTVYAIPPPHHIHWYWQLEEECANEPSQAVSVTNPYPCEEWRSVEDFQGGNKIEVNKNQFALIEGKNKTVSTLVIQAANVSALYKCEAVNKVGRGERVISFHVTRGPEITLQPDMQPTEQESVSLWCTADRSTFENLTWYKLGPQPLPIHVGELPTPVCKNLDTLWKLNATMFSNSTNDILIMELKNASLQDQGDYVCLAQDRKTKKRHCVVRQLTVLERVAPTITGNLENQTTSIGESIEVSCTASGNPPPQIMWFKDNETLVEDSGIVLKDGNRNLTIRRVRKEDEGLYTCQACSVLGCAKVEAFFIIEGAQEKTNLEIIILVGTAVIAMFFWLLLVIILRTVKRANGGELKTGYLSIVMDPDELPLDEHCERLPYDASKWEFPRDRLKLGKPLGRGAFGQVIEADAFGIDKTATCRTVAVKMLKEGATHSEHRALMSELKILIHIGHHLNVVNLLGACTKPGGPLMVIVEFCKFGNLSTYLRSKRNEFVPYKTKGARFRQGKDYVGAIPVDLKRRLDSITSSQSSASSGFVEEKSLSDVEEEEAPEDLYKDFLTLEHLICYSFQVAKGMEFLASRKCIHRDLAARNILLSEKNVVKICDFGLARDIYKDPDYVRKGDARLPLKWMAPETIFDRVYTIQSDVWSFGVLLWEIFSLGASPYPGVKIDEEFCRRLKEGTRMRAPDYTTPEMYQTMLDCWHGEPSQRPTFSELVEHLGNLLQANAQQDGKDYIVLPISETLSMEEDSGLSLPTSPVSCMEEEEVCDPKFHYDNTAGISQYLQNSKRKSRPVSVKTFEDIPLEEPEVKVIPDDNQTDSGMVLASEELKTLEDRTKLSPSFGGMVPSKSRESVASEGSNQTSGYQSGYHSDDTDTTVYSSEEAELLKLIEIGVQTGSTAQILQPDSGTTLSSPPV
With B1, the “% Inhibition of VEGF165-mediated pTyr Activity, Average” value (“% Inhibition … Average” below) came to 51%; the “% Inhibition of VEGF165-mediated pTyr Activity, n = 1” value (“% Inhibition … n = 1” below) is 69%; the “% Inhibition of VEGF165-mediated pTyr Activity, n = 2” value (from here on “% Inhibition … n = 2”) turned out to be 51%; the “% Inhibition of VEGF165-mediated pTyr Activity, n = 3” value (shortened to “% Inhibition … n = 3”) worked out at 33%.
Take B2: the “% Inhibition … Average” value amounted to 62%; the “% Inhibition … n = 1” value came out at 60%; the “% Inhibition … n = 2” value is 68%; the “% Inhibition … n = 3” value came out at 59%.
For B3, in that order: 70%, 98%, 60% and 52%.
For B4, in that order: 70%, 80%, 70% and 61%.
For B5, in that order: 76%, 92%, 77% and 59%.
Take B6: the “% Inhibition … Average” value worked out at 72%; the “% Inhibition … n = 1” value came to 84%; the “% Inhibition … n = 2” value came out at 75%; the “% Inhibition … n = 3” value was 57%.
The like results for B7 were, in that order, 72%, 85%, 65% and 68%.
For B8, in that order: 72%, 71%, 77% and 68%.

A further assay deals with T1, human KDR (VEGFR2) on cells. Put plainly: cell-based or functional assay. The source holds these as a separate data set.
For the molecule B1, the “% Inhibition of VEGF-E-mediated pTyr Activity” value stood at 40%.
Regarding B2, the “% Inhibition of VEGF-E-mediated pTyr Activity” value came to 60%.
Still for that read-out and setting: as for B3, the figure is 56%.
The same measure, in the same setting: as for B4, the figure is 6%.
With B5, the “% Inhibition of VEGF-E-mediated pTyr Activity” value is 20%.
On the same count and under the same terms, under B6 stands 17%.
Still for that read-out and setting: under B7 stands 70%; under B8, 67%.

The target is the same in another assay. Description: cell-based or functional assay. The source holds these as a separate data set.
For the molecule B1, the “HUVEC survival (n = 1) 1:10 dilution of supernatant (RLU)” value (“HUVEC survival (n = 1) 1:10 dilution” below) came out at 14100 RLU and the “HUVEC survival (n = 2) 1:20 dilution of supernatant (RLU)” value (from here on “HUVEC survival (n = 2) 1:20 dilution”) turned out to be 2460 RLU.
For B2, in that order: 17300 RLU and 4560 RLU.
For B3, in that order: 14800 RLU and 1350 RLU.
B4: the “HUVEC survival (n = 1) 1:10 dilution” value turned out to be 43800 RLU and the “HUVEC survival (n = 2) 1:20 dilution” value is 10300 RLU.
For B5, in that order: 39500 RLU and 21100 RLU.
For B6, in that order: 44800 RLU and 8570 RLU.
For B7, in that order: 10200 RLU and 247 RLU.
B8: the “HUVEC survival (n = 1) 1:10 dilution” value was 8870 RLU and the “HUVEC survival (n = 2) 1:20 dilution” value was 2670 RLU.

Another assay has the same target. Put plainly: FACS on HUVEC, hybridoma supernatant 1:50. On the procedure: HUVECs were seeded at 15,000 cells/well and incubated with 100 μL of sample supernatant (at 1:50 dilution) for one hour at 4° C. The positive control was goat anti-KDR antibody (R&D Systems, Inc.), and negative controls included irrelevant hybridoma supernatants at the same dilution. The cells were then washed and incubated with Cy5-conjugated goat anti-human antibody at 5 μg/mL and 7-Amino-Actinomycin D (7AAD) at 5 μg/mL for 15 minutes at 4° C. Bound KDR was detected using FACS analysis.
Consider B1, for which the “FACS Geometric Mean” value worked out at 26.
Still for that read-out and setting: as for B2, the figure is 25; as for B3, 21; as for B4, 29.
Same read-out and setting: as for B5, the figure is 31.
Same read-out and setting: under B6 stands 26.
B7: the “FACS Geometric Mean” value turned out to be 18.
With B8, the “FACS Geometric Mean” value turned out to be 14.

A further assay concerns the target T2, mouse KDR (Flk-1)/Fc (Cat. #443-KD/CF, R&D Systems) (mouse, UniProt P35918 20-762).
T2 construct: Bought reagent; also called mouse VEGFR2; KDR mouse ortholog; Fc part of the bought chimera not given
Put plainly: ELISA, plate-coated Flk-1/Fc 500 ng/mL, hybridoma supernatant 1:5. On the procedure: The cross-reactivity of antibodies in the hybridoma supernatant was tested against KDR mouse ortholog (mouse VEGFR2, or Flk-1) and human VEGFR1 (Flt-1). Cross-reactivity was measured using an ELISA based assay.
After washing and blocking the plates, the antibody-containing supernatants were added (at 1:5 dilution) into the coated wells and incubated for one hour at room temperature. The plates were then incubated with mouse anti-human IgG 2, 3 and 4 and subsequently with goat anti-mouse IgG Fc POD, to detect and measure bound antibodies.
On the technique in general: ELISA stands for enzyme-linked immunosorbent assay.
Take B1: the “OD (450 nm)” value is 0.094 OD450.
For B3, the “OD (450 nm)” value stood at 0.067 OD450.
Same read-out and setting: under B4 stands 0.139 OD450; under B6, 0.083 OD450.

A further assay deals with T3, soluble KDR (VEGF Receptor 2 D1-7, Cat. #676490, Calbiochem) (human, UniProt P35968 20-764).
T3 construct: extracellular domain; Bought reagent; also called soluble human KDR; immobilized soluble KDR
T3 sequence (P35968 20-764): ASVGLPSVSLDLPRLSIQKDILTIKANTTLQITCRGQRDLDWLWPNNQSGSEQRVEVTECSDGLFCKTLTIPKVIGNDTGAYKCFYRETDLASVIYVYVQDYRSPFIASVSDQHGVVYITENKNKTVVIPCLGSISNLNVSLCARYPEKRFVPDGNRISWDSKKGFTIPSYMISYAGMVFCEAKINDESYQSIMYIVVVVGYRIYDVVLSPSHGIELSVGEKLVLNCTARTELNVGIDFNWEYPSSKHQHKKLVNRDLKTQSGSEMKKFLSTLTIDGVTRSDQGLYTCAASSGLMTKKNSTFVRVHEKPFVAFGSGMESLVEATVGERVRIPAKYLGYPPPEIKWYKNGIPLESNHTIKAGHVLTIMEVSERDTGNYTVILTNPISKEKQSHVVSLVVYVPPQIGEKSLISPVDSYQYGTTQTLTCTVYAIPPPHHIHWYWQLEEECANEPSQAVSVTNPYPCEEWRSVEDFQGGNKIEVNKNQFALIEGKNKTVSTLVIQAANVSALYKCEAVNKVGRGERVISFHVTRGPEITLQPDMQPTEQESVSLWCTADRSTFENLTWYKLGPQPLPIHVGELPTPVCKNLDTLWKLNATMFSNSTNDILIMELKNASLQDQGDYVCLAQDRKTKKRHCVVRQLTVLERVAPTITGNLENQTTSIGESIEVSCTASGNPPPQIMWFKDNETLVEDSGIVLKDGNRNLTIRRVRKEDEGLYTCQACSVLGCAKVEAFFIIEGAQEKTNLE
Description: ELISA, plate-coated soluble KDR 250 ng/mL, hybridoma supernatant 1:5. On the procedure:
To screen by binding to immobilized soluble KDR, plates were coated with KDR (Calbiochem) at 250 ng/mL overnight at 4° C. After blocking and washing the coated plates, the candidate hybridoma supernatants (at 1:5 dilution) were transferred to the plates and incubated for one hour at room temperature. The plates were then washed and incubated with secondary antibody (at 1:4000 dilution) for one hour at room temperature.
B1: the “KDR OD(450 nm)” value was determined as 6 OD450.
The same measure, in the same setting: as for B2, the figure is 3.75 OD450.
Consider B3, for which the “KDR OD(450 nm)” value came to 0.454 OD450.
Consider B4, for which the “KDR OD(450 nm)” value turned out to be 1.65 OD450.
Still for that read-out and setting: as for B5, the figure is 0.943 OD450.
The same measure, in the same setting: as for B6, the figure is 0.924 OD450.
The same measure, in the same setting: as for B7, the figure is 0.62 OD450.
Turning to B8, the “KDR OD(450 nm)” value was 0.967 OD450.

The next assay addresses T4, b-KDRIg4-7-myc-his (UniProt P35968 328-764, prefix 'b-' not explained; captured on neutravidin-coated plates (presumably biotinylated, site not stated)).
T4 construct: domain: Ig4-7; The text calls it 'a KDR antibody containing the Ig4-7 domain'; it is read as the KDR fragment; Purified on a nickel column; also called Ig4-7 domain of KDR; soluble KDR Ig4-7; not shown: myc-his tag of the pSecTag vector
Description: ELISA, b-KDRIg4-7-myc-his 1 ug/mL on neutravidin, hybridoma supernatant 1:5. On the procedure: To screen by binding to the Ig4-7 domain of KDR, plates were first coated with neutravadin (Pierce) at 4 μg/mL and incubated overnight at 4° C. The plates were then blocked and subsequently incubated with b-KDRIg4-7-myc-his at 1 μg/mL for one hour at room temperature. Candidate hybridoma supernatants (at 1:5 dilution) were transferred to the plates and incubated for one hour at room temperature. The plates were then washed and incubated with goat anti-human IgG Fc POD (at 1:4000 dilution) for one hour at room temperature.
Regarding B1, the “b-KDRIg4-7 OD(450 nm)” value is 0.065 OD450.
On the same count and under the same terms, as for B2, the figure is 1.82 OD450; as for B5, 0.047 OD450.
For B7, the “b-KDRIg4-7 OD(450 nm)” value amounted to 0.935 OD450.
For the molecule B8, the “b-KDRIg4-7 OD(450 nm)” value was found to be 1.27 OD450.
